The data set “crystal structure” concerns the molecule itself. Kind of data set: crystal structure.
Data set [1] deals with T1, MHF1;MHF2 (human;human, UniProt Q8N2Z9;A8MT69 1-138;1-81, |). Kind of data set: fluorescence polarization.
For data set [2], the target named is MHF1 K73A/R74A;MHF2 R11A/K12A;FANCM-F K675A/K676A (human;human;human, UniProt Q8N2Z9;A8MT69;Q8IYD8 1-138;1-81;661-800, K73A;R74A|R11A;K12A|K675A;K676A). Kind of data set: EMSA. (In general: In EMSA bound probe runs differently from free probe, usually more slowly.)
Sequence of MHF1 K73A/R74A;MHF2 R11A/K12A;FANCM-F K675A/K676A (A8MT69 whole entry R11A/K12A, chain 2 of 2): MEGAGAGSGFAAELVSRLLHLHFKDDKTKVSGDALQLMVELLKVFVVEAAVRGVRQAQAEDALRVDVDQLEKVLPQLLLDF
Sequence of MHF1 K73A/R74A;MHF2 R11A/K12A;FANCM-F K675A/K676A (Q8IYD8 661-800 K675A/K676A, chain 3 of 2): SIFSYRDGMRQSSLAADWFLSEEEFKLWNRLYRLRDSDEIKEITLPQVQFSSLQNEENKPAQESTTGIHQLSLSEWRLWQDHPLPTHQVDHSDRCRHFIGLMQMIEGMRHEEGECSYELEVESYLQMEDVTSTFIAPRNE
Data set [3] deals with T1, MHF1;MHF2. Kind of data set: EMSA.
In data set [4] the target is MHF1 K73A/R74A;MHF2;FANCM-F (human;human;human, UniProt Q8N2Z9;A8MT69;Q8IYD8 1-138;1-81;661-800, K73A;R74A||). Kind of data set: EMSA.
Sequence of MHF1 K73A/R74A;MHF2;FANCM-F (A8MT69 whole entry, chain 2 of 2): as the sequence (A8MT69 whole entry R11A/K12A, chain 2 of 2) above, with A11R, A12K counted along it
Sequence of MHF1 K73A/R74A;MHF2;FANCM-F (Q8IYD8 661-800, chain 3 of 2): as the sequence (Q8IYD8 661-800 K675A/K676A, chain 3 of 2) above, with A15K, A16K counted along it
Data set [5] concerns the target MHF1;MHF2 K27A/K29A;FANCM-F (human;human;human, UniProt Q8N2Z9;A8MT69;Q8IYD8 1-138;1-81;661-800, |K27A;K29A|). Kind of data set: EMSA.
The target in data set [6] is MHF1 R12A/R18A/K73A/R74A;MHF2;FANCM-F K686A/R690A/R693A (human;human;human, UniProt Q8N2Z9;A8MT69;Q8IYD8 1-138;1-81;661-800, R12A;R18A;K73A;R74A||K686A;R690A;R693A). Kind of data set: EMSA.
Sequence of MHF1 R12A/R18A/K73A/R74A;MHF2;FANCM-F K686A/R690A/R693A (Q8N2Z9 whole entry R12A/R18A/K73A/R74A, chain 1 of 3): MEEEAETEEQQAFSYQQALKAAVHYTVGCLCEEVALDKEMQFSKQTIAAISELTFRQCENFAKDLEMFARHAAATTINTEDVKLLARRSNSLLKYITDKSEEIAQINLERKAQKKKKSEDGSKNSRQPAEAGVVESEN
Sequence of MHF1 R12A/R18A/K73A/R74A;MHF2;FANCM-F K686A/R690A/R693A (A8MT69 whole entry, chain 2 of 3): as the sequence (A8MT69 whole entry R11A/K12A, chain 2 of 2) above, with A11R, A12K counted along it
Sequence of MHF1 R12A/R18A/K73A/R74A;MHF2;FANCM-F K686A/R690A/R693A (Q8IYD8 661-800 K686A/R690A/R693A, chain 3 of 3): as the sequence (Q8IYD8 661-800 K675A/K676A, chain 3 of 2) above, with A15K, A16K, K26A, R30A, R33A counted along it
The target of another data set is MHF1 1-107;MHF2;FANCM-F (human;human;human, UniProt Q8N2Z9;A8MT69;Q8IYD8 1-107;1-81;661-800, ||). Kind of data set: not stated.
Sequence of MHF1 1-107;MHF2;FANCM-F (A8MT69 whole entry, chain 2 of 2): as the sequence (A8MT69 whole entry R11A/K12A, chain 2 of 2) above, with A11R, A12K counted along it
Sequence of MHF1 1-107;MHF2;FANCM-F (Q8IYD8 661-800, chain 3 of 2): as the sequence (Q8IYD8 661-800 K675A/K676A, chain 3 of 2) above, with A15K, A16K counted along it
Data set [7] has as its target MHF1 K73A/R74A;MHF2;FANCM-F K675A/K676A (human;human;human, UniProt Q8N2Z9;A8MT69;Q8IYD8 1-138;1-81;661-800, K73A;R74A||K675A;K676A). Kind of data set: EMSA.

T1 sequence (A8MT69 whole entry, one chain of several): as the sequence (A8MT69 whole entry R11A/K12A, chain 2 of 2) above, with A11R, A12K counted along it
Sequence of MHF1 K73A/R74A;MHF2;FANCM-F K675A/K676A (A8MT69 whole entry, chain 2 of 2): as the sequence (A8MT69 whole entry R11A/K12A, chain 2 of 2) above, with A11R, A12K counted along it
Sequence of MHF1 K73A/R74A;MHF2;FANCM-F K675A/K676A (Q8IYD8 661-800 K675A/K676A, chain 3 of 2): as the sequence (Q8IYD8 661-800 K675A/K676A, chain 3 of 2) above
Sequence of MHF1;MHF2 K27A/K29A;FANCM-F (A8MT69 whole entry K27A/K29A, chain 2 of 2): as the sequence (A8MT69 whole entry R11A/K12A, chain 2 of 2) above, with A11R, A12K, K27A, K29A counted along it
Sequence of MHF1;MHF2 K27A/K29A;FANCM-F (Q8IYD8 661-800, chain 3 of 2): as the sequence (Q8IYD8 661-800 K675A/K676A, chain 3 of 2) above, with A15K, A16K counted along it

B1: MHF1^1-107 (truncated MHF1 with the C-terminal 31 residues deleted) (domain or fragment, human, UniProt Q8N2Z9 1-107, looked up)
chain: MEEEAETEEQQRFSYQQRLKAAVHYTVGCLCEEVALDKEMQFSKQTIAAISELTFRQCENFAKDLEMFARHAKRTTINTEDVKLLARRSNSLLKYITDKSEEIAQIN
On to B1, for which, in “crystal structure”, the binding result is “binds”.

B2: 59 bp dsDNA (FPA) (dsDNA)
DNA 1: ACGCTGCCGAATTCTACCAGTGCCTTGCTAGGACATCTTTGCCCACCTGCAGGTTCACC
DNA 2: GGTGAACCTGCAGGTGGGCAAAGATGTCCTAGCAAGGCACTGGTAGAATTCGGCAGCGT
For B2, in the data set with MHF1;MHF2 [1], the binding result is recorded as “binds”.

B3: 59 bp dsDNA (EMSA) (dsDNA)
DNA 1: ACGCTGCCGAATTCTACCAGTGCCTTGCTAGGACATCTTTGCCCACCTGCAGGTTCACC
DNA 2: GGTGAACCTGCAGGTGGGCAAAGATGTCCTAGCAAGGCACTGGTAGAATTCGGCAGCGT
As to B3, the binding result is “no binding” in [2]; “binds” with MHF1;MHF2 [3]; “binds” in [4]; “binds” in data set [5]; “no binding” in data set [6]; “no binding” with MHF1 1-107;MHF2;FANCM-F. For the same molecule, in data set [7], the binding result is given as “no binding”.

The values are drawn from publication PMC3646547 (Nature communications, 2012).
